Reference: US20170233472A1 (MacroGenics, published 2017)

B1: DART-16 (bispecific antibody)
chain 1: QLVLTQSPSASASLGSSVKLTCTLSSGHKTDTIDWYQQQPGKAPRYLMKLEGSGSYNKGSGVPDRFGSGSSSGADRYLTISSLQSEDEADYYCGTDYPGNYLFGGGTQLTVLGGGGSGGGGEVQLVESGGGLVQPGGSLRLSCAASGFTFSTYAMNWVRQAPGKGLEWVGRIRSKYNNYATYYADSVKGRFTISRDDSKNSLYLQMNSLKTEDTAVYYCVRHGNFGNSYVSWFAYWGQGTLVTVSSGGCGGGKVAALKEKVAALKEKVAALKEKVAALKE
chain 2: QAVVTQEPSLTVSPGGTVTLTCRSSTGAVTTSNYANWVQQKPGQAPRGLIGGTNKRAPWTPARFSGSLLGGKAALTITGAQAEDEADYYCALWYSNLWVFGGGTKLTVLGGGGSGGGGQEQLVESGGGLVQPGGSLRLSCAASGFTFSDYYMSWVRQAPGKGLEWVATIYPSSGKTYYADSVKGRFTISSDNAKNSLYLQMNSLRAEDTAVYYCTRDSYADDAALFDIWGQGTTVTVSSGGCGGGEVAALEKEVAALEKEVAALEKEVAALEK
notes: ROR1×CD3 two chain diabody; VL: parental; VH(3): A93T
B2: DART-21 (bispecific antibody)
chain 1: QLVLTQSPSASASLGSSVKLTCTLSSGHKTDTIDWYQQQPGKAPRYLMKLEGSGSYNKGSGVPDRFGSGISSGADRYLTISSLQSEDEADYYCGTDYPGNYLFGGGTQLTVLGGGGSGGGGEVQLVESGGGLVQPGGSLRLSCAASGFTFSTYAMNWVRQAPGKGLEWVGRIRSKYNNYATYYADSVKGRFTISRDDSKNSLYLQMNSLKTEDTAVYYCVRHGNFGNSYVSWFAYWGQGTLVTVSSGGCGGGKVAALKEKVAALKEKVAALKEKVAALKE
chain 2: QAVVTQEPSLTVSPGGTVTLTCRSSTGAVTTSNYANWVQQKPGQAPRGLIGGTNKRAPWTPARFSGSLLGGKAALTITGAQAEDEADYYCALWYSNLWVFGGGTKLTVLGGGGSGGGGQEQLVESGGGLVQPGGSLRLSCAASGFTFSDYYMSWVRQAPGKGLEWVATIYPSSGKTYYADSVKGRFTISSDNAKNSLYLQMNSLRAEDTAVYYCTRDSYADDAALFDIWGQGTTVTVSSGGCGGGEVAALEKEVAALEKEVAALEKEVAALEK
notes: ROR1×CD3 two chain diabody; VL(6): S66I; VH(3): A93T
B3: DART-20 (bispecific antibody)
chain 1: QLVLTQSPSASASLGSSVKLTCTLSSGHKTDTIDWYQQQPGKAPRYLMKLEGSGSYNKGSGVPDRFGSGSSSGADWYLTISSLQSEDEADYYCGTDYPGNYLFGGGTQLTVLGGGGSGGGGEVQLVESGGGLVQPGGSLRLSCAASGFTFSTYAMNWVRQAPGKGLEWVGRIRSKYNNYATYYADSVKGRFTISRDDSKNSLYLQMNSLKTEDTAVYYCVRHGNFGNSYVSWFAYWGQGTLVTVSSGGCGGGKVAALKEKVAALKEKVAALKEKVAALKE
chain 2: QAVVTQEPSLTVSPGGTVTLTCRSSTGAVTTSNYANWVQQKPGQAPRGLIGGTNKRAPWTPARFSGSLLGGKAALTITGAQAEDEADYYCALWYSNLWVFGGGTKLTVLGGGGSGGGGQEQLVESGGGLVQPGGSLRLSCAASGFTFSDYYMSWVRQAPGKGLEWVATIYPSSGKTYYADSVKGRFTISSDNAKNSLYLQMNSLRAEDTAVYYCTRDSYADDAALFDIWGQGTTVTVSSGGCGGGEVAALEKEVAALEKEVAALEKEVAALEK
notes: ROR1×CD3 two chain diabody; VL(2): R71W; VH(3): A93T
B4: DART-17 (bispecific antibody)
chain 1: QLVLTQSPSASASLGSSVKLTCTLSSGHKTDTIDWYQQQPGKAPRYLMKLEGSGSYNKGSGVPDRFGSGSSSGADRYLTISSLQSEDEADYYCGTDYPGNYLFGGGTQLTVLGGGGSGGGGEVQLVESGGGLVQPGGSLRLSCAASGFTFSTYAMNWVRQAPGKGLEWVGRIRSKYNNYATYYADSVKGRFTISRDDSKNSLYLQMNSLKTEDTAVYYCVRHGNFGNSYVSWFAYWGQGTLVTVSSGGCGGGKVAALKEKVAALKEKVAALKEKVAALKE
chain 2: QAVVTQEPSLTVSPGGTVTLTCRSSTGAVTTSNYANWVQQKPGQAPRGLIGGTNKRAPWTPARFSGSLLGGKAALTITGAQAEDEADYYCALWYSNLWVFGGGTKLTVLGGGGSGGGGQEQLVESGGGLVQPGGSLRLSCAASGFTFSDYYMSWVRQAPGKGLEWVATIYPSSGKTYYADSVKGRFTISSDNAKYSLYLQMNSLRAEDTAVYYCARDSYADDAALFDIWGQGTTVTVSSGGCGGGEVAALEKEVAALEKEVAALEKEVAALEK
notes: ROR1×CD3 two chain diabody; VL: parental; VH(4): N76Y

Target: T1, His-tagged soluble human ROR1 (shROR1-His) (human, UniProt Q01973 30-406)
T1 construct: also called ROR1 protein; immobilized ROR1; not shown: His-Tag
T1 sequence (Q01973 30-406): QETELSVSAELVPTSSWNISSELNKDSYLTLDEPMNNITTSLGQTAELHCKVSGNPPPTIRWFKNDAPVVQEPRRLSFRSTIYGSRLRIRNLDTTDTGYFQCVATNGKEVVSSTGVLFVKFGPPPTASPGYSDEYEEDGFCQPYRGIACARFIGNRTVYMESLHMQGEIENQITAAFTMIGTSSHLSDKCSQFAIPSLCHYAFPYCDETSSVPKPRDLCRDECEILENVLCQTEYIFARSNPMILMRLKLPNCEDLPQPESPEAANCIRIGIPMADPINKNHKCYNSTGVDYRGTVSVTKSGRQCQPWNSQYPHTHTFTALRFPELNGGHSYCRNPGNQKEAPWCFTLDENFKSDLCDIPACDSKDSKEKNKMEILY
Assay: SPR (Biacore), diabody captured via anti-E/K-coil, shROR1-His as analyte
Method: The binding kinetics of DART-1 to DART-6, DART-10 to DART-17, DART-20 to DART-33 was investigated using Biacore analysis in which ROR1 protein was passed over immobilized diabodies. Briefly, each diabody construct was captured on immobilized anti-E/K-coil surface and was incubated with shROR1-His at 25 and 100 nM, and the kinetics of binding were determined via Biacore analysis.

Binder | Kd [nM]
B1 | 4.3
B2 | 4.8
B3 | 1.3
B4 | 3.7
